Reference: patent US20140348902A1 (University of Texas, published 2014)

What was measured:
[1] = molecular target: T1, HLA-A2 (HLA-A*0201) on TAP-deficient T2 cells (human); test: T2 binding assay, flow cytometry for HLA-A2
T1 construct: also called MHC I (HLA-A2)
Protocol: (§1) TAP-deficient T2 cells were incubated with 20 μg/ml of peptides and 3 μg/ml of β₂-microglobulin (Sigma-Aldrich, Cat # M4890) for 24 hours at 37° C. and 5% CO₂ in air. […] The binding affinity of the peptide to HLA-A2 (T2 binding index) was quantified as follows: (Mean fluorescence intensity [MFI] of HLA-A2 with peptide—MFI of HLA-A2 without peptide)/(MFI of HLA-A2 without peptide).

[2] = molecular target: T1, HLA-A2 (HLA-A*0201) on TAP-deficient T2 …; test: T2 cell peptide-binding assay, flow cytometry for HLA-A2
Protocol: as §1

binding result [1] | binding result [2] | Binder
binds |  | TQIGPSLLPIMWQLY (Synthetic peptide (Sigma-Aldrich, >70% purity); also called P17) [TCL1 65-79 peptide (TQIGPSLLPIMWQLY)]
 | binds | LLPIMWQL (Synthetic peptide) [TCL1 71-78 peptide (LLPIMWQL)]
